Reference: the nanobody polyreactivity screen of Harvey et al. (2022)

test: yeast display, Sf9 membrane polyspecificity reagent, FACS + sequencing; frameworks hold sequencing errors
Summary of the method: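 Nanobodies from a synthetic yeast display library (Saccharomyces cerevisiae BJ5465), induced 36–48 hours with galactose, were stained 1 hour at 4 °C with 10% biotinylated, detergent-solubilized Sf9 membrane reagent, enriched on streptavidin microbeads, then FACS-sorted. Anti-HA (expression) and streptavidin (reagent binding) fluorescence set low and high (top ~1%) gates. Polyreactivity labels come from the gate of origin. Genes were colony-PCR amplified, MiSeq 2 × 250 sequenced and filtered by CDR length.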

Sequence | polyreactivity (PSR sort gate)
QVQIVESGGGLVQAGGSLRLSWASSGRIFYSNAMGRYRQAPGKERELVAAISYSGDSTYYADSVQGRFTISRDNAKNTGYFQMNSLKPEVTAVYYCAAETYVGEDYWGQGTQETVSS | high polyreactivity
QVQIVESGGGLVQAGGSLRLTCAASGSIFTVYAMGWYRQEPGKERELVAAISSGASTNYADTVKGRFTISRDNATNTVYLQMNSLKPEDTAVYYFAARLYARRLYDYWGQGSQVTVSS | low polyreactivity
QVQIVESGGGLVQAGGSLRLTCAASGSTLTIYARGWYRQAPGKERDLVAAISRSGGRTYYADSVKGRFTISRDYAKNTVYLQMNSLKPEDTAVYYCAARGWSYRSVGYMDYWGQGTQVTVSS | high polyreactivity
QVQIVESGGGLVQAGGSLRLTCAASGYIFTYYAMGWYRQAPWKERDLVAAISGSDGNTYYADSVKGRFTISRDNAKNTVYLQMNSLKPEDTAVYYCAKSGGLTFRSQSYDYWGQGTQVTVSS | low polyreactivity
QVQIVESGGGLVQAGGSLRVSCAASGFTFDENAMGWYRQAPGINYSGASTYYADSVKGRFTISRDNAKNTVYLQMNSVKQDDTAVYYCAAEVVAQMNYWGQGTQVTVSS | low polyreactivity
QVQIVESGGGLVQAGGSLSLSCAASGFIFSVNDMGWYRQAPGKERELVAAISRDSGSKYYADSVKGRFTISRDNAQNSVYLEMISLKPEDTAVYDCNGEGQWVWDPYGVYDDDSYNYWGQGTQVTVSS | low polyreactivity
QVQIVESGGGLVQAGRSLRLSCAASGSTFEFYAMGWYRQAPGKEREFVAGITSSGVTTYYADSVKGRFTISRDNAKYTVYLQMNSLKPVDTAVYYCAATDVVYSWFFLVYIPYDYWGQGTQVTVSS | low polyreactivity
QVQIVESGGGLVQEGGSLRLSCAASGRIFEPYDMGLYRQSPGKERELVAALRCSGGSTYYADSVKGRFTISRDNAKNTVYLQMNSLKPEDTAVYYCAKDAFGWGRVYYYRSGYWGQGTQVTVSS | high polyreactivity
QVQIVESGGGLVQPGCSLRLSCAASGRIFYGYAMGLYRQSPGKERELVAAITSTRGRTYYADSVKGRFTISRDNAKNTFYLQMNSLKPEDSAVYYCAKRGYTRWGLDYWGQGTQVTVSS | high polyreactivity
QVQIVESGGGLVQPGGILRLSCAASGSTSQPYDMGWYRQAPGKEWELVASITKGRITYYADSVKGRFTISRDNAKNTVYLQMNSRKPEDTAVYYCNADNVFEGYDGRSARASYRYYSWGQGTQVTVSS | low polyreactivity
QVQIVESGRGLFQAGGSLRLSCAASGSIFRFNVMGWYRPATGKECELVASISDSGDNTNYADSVKGRFTISGDNAKNPVDLLMNSLKPEDTAVYYCAARGSRWYIAVDYRGQGTQVTVSS | low polyreactivity
QVQIVESGRGLVQAGGSLRLSCAASGLTFARNAMGWSRPAPGKQRELVAAITSGASTTYADSVKGRITISRDNAMNTVSVQMNSLKPEDTAVYYCAAPGYWVRTYGGWSRLDYWGQGTQVTVSS | high polyreactivity
QVQIVESGVGLVQAGGSLSLSCAASGIIIHSNAMGWYRQAPGKERELVAAITSSGGSKYYADSVKGRFTISRDNAKNTVYLQMNSLKPVDTAVYYCAVVTILVYRYVVPYDYWGHGTQVTVSS | high polyreactivity
QVQIVESRGGLVQAGGSLRLSCAASGRILYLYAMGWYRQAPGKERELVARISQRDGSTYYADSVKGRFTISRDNAKNNDYLHMNSLKPEDTAVYYCNAVFSRGSYGYSYDYWGQGTQVTVSS | low polyreactivity
QVQIVESRGGLVQAGGSLSLSCAASGRIFDYYAMGWYRQPPGKERELVAAISSSVGNTYYADSVKGRFTISRDNSKNTVYLQMNSLKPEVTAVYYCADYSYVRSSYEVEYDYWGQGTQVTVSS | low polyreactivity
QVQIVESRVGLVQAGGSLRLSCAASGLTFYYYAMGWYRQAPGKERELVAAIDGSGGITYYEDSLKARFTISRDNEKNTVYLQMNSLKPEDTAVYYCAAERVVGDAYDYWGQGTQVTVSS | high polyreactivity
QVQIVETGGGLVQAGGSLRLSCDASGSIFPDYAKGWYRQAPRKERELLASISWDGGSTYYADSVKGRFTISRDNAKNTVYLQMNSLKPEDTAVYYCATEWLVGGGVTVDYWGQGTQVSVSS | low polyreactivity
QVQLAESGAGLVQAGGSLRLSCAASGFTFFPYAMGWYIQAPGKERELVAGITYNGGSTYYADSVKGRFTISRDNAKNTVYLQMNSLKPEDTAVYYCNAGRIGGFDWGQGTQVTVSS | low polyreactivity
QVQLAESGGGLVQAGGSLRLSCSASGSTFVAYAMGWYRQAPGKERELVAAITRSGGSTYYADSVKGRFTISRDNAKNTVYLQMNSLKPEDTAVFYCAARHYRSRDGYWGQGTQVTVSS | high polyreactivity
QVQLDESGGRLVQAGGSLRLSCAASGSIFKVNAMGWYRQAPGKERELVAVISKRGGSTYYADSVKGRFTISRDHAKNTVYLQMNSLKPEDTAVYYCAAGKAPPSLRWVARIGKYEYWGQGTQVTVSS | low polyreactivity
QVQLEDSGGGLFQAGGSLRLSCAASGNTFPVSYTMGWYIQAHRKEREFVAAISKDGGRTYYADSVKGRFTISRDNAKNTVYLQMNSLKPEDTAVYYCAARYSSSRGLSSEYWGQCTQVTVSS | high polyreactivity
QVQLEDSGGGLVQAGGSLPLSCAASGSIFVQYDMGWYIQAPGKERELVAAINDSGDITYYADSVKARFTISRDNAKNTIYLQMNSLKPEDTAVYYCAASAAYYGFYKSVTYDYWGQGTQVTVSS | low polyreactivity

Sequence | polyreactivity (PSR sort gate)
QVQLEDSGGGLVQAGGSLRLICAASGSIIGTKAMGWYRQAPGKERELVAAIHWSGGTTYYADSVKGRFTISRDNAKNTVYFQMNSLKPDDTPVYDCATVFFVLPPTRFDAWGQGTLVTVSS | low polyreactivity
QVQLEDSGGGLVQAGGSLRLSCAASGFNFYYNAMGWYRKAPGKERELVAAISWSDGGTYYADSVKGRFTISRDNAKNTVYLQMNSLKPEDTAFYYCAADFRLRAYYPGYEYWGQGTQVTVSS | low polyreactivity
QVQLEDSGGGLVQAGGSLRLSCAASGFTILRYAMGWYRQAPGKERELVAAIDWYGGSTYYADSVKGRFTISRDNAKNTVFVQMNSLKPEDCAVYYCNARKINFPSRFNDWGQGTQVTVSS | low polyreactivity
QVQLEDSGGGLVQAGGSLRLSCAASGIIFPDYAMGWYRQAPGKQRELVADISFSAGSTYYADSVKGRFTISRDNAKNTVYLQMNSLKPEDTAVYYCNARPFLTVLYLFYGNNYDYWGQGTQVTVSS | low polyreactivity
QVQLEDSGGGLVQAGGSLRLSCAASGRTSVGYVMGWYRQAPGKERELVAAISASGGSTYYADSVKGRFTISRDNAKNTVYLQMNSLKPEDTAVYYCNAPVYVPYDYWGQGTQVTVSS | low polyreactivity
QVQLEDSGGGLVQAGGSLRLSCAASGSTFDNYAMGWYRQAPGKERELVAVITQSGGITFYADSVKGRFTISRDNAKNTVYLQMNSVKPEDTAVYYCNVELDRSWYYYWGQGTQVTVSS | low polyreactivity
QVQLEDSGGGLVQAGGSLRLSSPASGRIFGWYAMGWYRQAPGKERELVATISYSGASTYYADSVKGRFTISRDNAKNTVYLQMNSLKPEDTAVYYCAAVYHKNGCGDYSWGQGTQVTVSS | high polyreactivity
QVQLEESAGGLVQAGGSLRLICADSARILRQYARGWYRQAPGKERELVAAITSSGGSTYYADSVKGRFTISRDNEKNTVYLQMNSMKPEDTAVYYCNARLRGAKYDYWGQGTQVSVSS | high polyreactivity
QVQLEESAGGLVQAGGSLRLSCAASGRIFNYYAMGWYRQAPGKERELVATISSTGSSTYYADSVKGRFTISRDNAKNTVYLQMNSLKPEDTAVYYCAARYVRQYYRAEDYWGQGTQVTVSS | high polyreactivity
QVQLEESAGGLVQAGGSLRLSCAASGRSFNAYAMGWYRQAPGKERELVATISWRTGSTYYADSVKGRFTISRDNAKNTVYLQMNSLKPEDTAVYYCNAKVGSYGAQGYRFAYNYWGQGTQVTVSS | high polyreactivity
QVQLEESGGCLVQAGGSLRLSCAASGFTFRGYAMGWYSQAPGKERELVAAISKRGGSTYYADSVKGRFTISRDNAKNTVYLLMNSLKPADTAVYYCNADYYIVGPPYSPTREDYWGQGTQVTVSS | high polyreactivity
QVQLEESGGCLVQAGGSLRLSCAASGIIFWDNALGWYRQAPGKERELVASINYSGGSTYYADSVKGRFTNSRDNAKNTVYLQMNSLKPEDTAVYYCAARTVTLDDWDYAYDYWVQGTQVTVSS | low polyreactivity
QVQLEESGGCLVQAGGSLRLSCAASGRIITSNDMGWYRQAPGKERELVAAISKSGGRTYYADSVKGRFTISRDNAKNTVYLQMNSLKPEDTAVYYCAKDNYWGQGTQVTVSS | high polyreactivity
QVQLEESGGCLVQAGGSLRLSCAASGSIFRHNVMGWYRPAPGKERELVAAISGGGGRTYYADSVKGRFTISRDNAKNTVYLQMNSQKPEDTAVYYCNAVGPGLYQGDSTDSRYNYWGQGTQVTVSS | high polyreactivity
QVQLEESGGCLVQAGGSLRLSCAASGSIFRIYAMGWYRQAPGKEREFVAAISSRGGRTYYAYSVKGRFTISRDNAKNTVYLQMNSLKPEDTAVYYCNARATRGSYYEYEYWGQGTQVTVSS | high polyreactivity
QVQLEESGGCLVQAGGSLRLSCAASGSTFSNYAMGWYRLAPGKESELVAAISYSGARTDYADSVKGRFTISRDNAKHTVYFQMHSLKPEDTAVYYCAAQVLSRHANPYAYYYWGQGTQVTVSS | high polyreactivity
QVQLEESGGCLVQAGGSLRLSCAATGITFYLYAMGWYRHAPGKERELVAAINSGGSTSYADSVKGRFTISRDNAKNTVYLQMNSLKTEDTADYYCNKLFLKFWGHQYGYWGQGTQVTVSS | high polyreactivity
QVQLEESGGGFVQAAGTLRLSCAPSGRIFLPYAMGWYRQAPGKEREFVAAITWGAGTTYYADSVKGRFTISRDNAKNTVYLQMNSLKPDDTAVYYCNARRRRAFSLYYYWGQGTQVTVSS | high polyreactivity
QVQLEESGGGFVQAGGCLRLSCAASGRIFYGYAMGWYRQAPGKERELVAAITRSSSTYYADSVKGRFTISRDNAKNTVYLQMNSQKPEDTAVYYCAAVMYATRPVYGFESWGLGTQVTVSS | high polyreactivity
QVQLEESGGGIVQAGGSLRLSCAASGSNYASNAMGWYRQAPRKERELVAAINSGDSTNYADSVKGRFTISRDNGKNTVYLQMNSLKTEDTAVYYCSRGLEERYDYWGQGTQVTVSS | low polyreactivity
QVQLEESGGGIVQAGGSLRLSCAASGSTFGVYAMGWYRQAPGKERELVAAISSSTGSTYYADSVKGRFTISRDNAKNTVYLQMNSLKPEYTAVYYCAAAGYGKVRGDYWGQGTQVTVSS | low polyreactivity
